From the nanobody polyreactivity screen of Harvey et al. (2022)

Assay: yeast display, Sf9 membrane polyspecificity reagent, FACS + sequencing; frameworks hold sequencing errors
Outline: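 Sorting gates, low and high (top ~1%), were placed on anti-HA fluorescence to track expression and on streptavidin fluorescence to track reagent binding. A clone's polyreactivity label is taken from the gate it came out of. The reagent was 10% biotinylated, detergent-solubilized Sf9 membrane, applied for 1 hour at 4 °C to galactose-induced yeast display cells.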

Sequence	polyreactivity (PSR sort gate)
QVQLVESGGGLVQAGGSLRLSCAASGITFSRNAMGWYRQAPGKERELVATITSGGSTNYADSVKGRFTISRDNAKNTVYLQMNSLKPEDTAVYYCAVDYDSYWYGTYVNEYDYWGQGTQVTVSS	low polyreactivity
QVQLVESGGGLVQAGGSLRLSCAASGITFSRNGMGWYRQAPGKERELVAAISTSGDSTDYADSVKGRFTISRDNAKNTVYLQMNSLKPEDTAVYYCATEWSYYNYGYDYWGQGTQVTVSS	low polyreactivity
QVQLVESGGGLVQAGGSLRLSCAASGITFSRYTMGWYRQAPGKERELVAGISSRGGSTYYADSVKGRFTISRDNAKNTVYLQMNSLKPEDTAVYYCAADGEHYPWYYYWGQGTQVTVSS	high polyreactivity
QVQLVESGGGLVQAGGSLRLSCAASGITFSSYVMGWYRQAPGKERELVAAISRSGGITYYADSVKGRFTISRDNAKNTVYIQMNSLKPEDTAVYYCAATFPAGWSYANYYYWGQGTQVTVSS	high polyreactivity
QVQLVESGGGLVQAGGSLRLSCAASGITFSTYAMGWYRQAPGKERELVAAINWSGGSTRYADSVKGRFTISRDNAKNTVYLQMNSLKPADTAVYYCAAEVQGQVGEFDYWGQGTQVTVSS	low polyreactivity
QVQLVESGGGLVQAGGSLRLSCAASGITFSVNAMGWYRQAPGKEREFVAAISSSGGSTYYADSLKGRFTISRDNAKNTVYLQMNSLKPEDTAVYYCAASGRVQRQHYRPYPYGYWGQGTQVTVSS	high polyreactivity
QVQLVESGGGLVQAGGSLRLSCAASGITFSVYAMGWYRQAPGKERELVASISSGGTSTYYADSVKGRFTISRDNAKNNVYLQMNSLKTEDSAVYYCAAYSYYTGDQYSYDYWGQGTQVTVSS	low polyreactivity
QVQLVESGGGLVQAGGSLRLSCAASGITFSWNAMGRYRQAPGKERELVASITENTGCTYYADSVKGRFTISRDNAKNTVYLQMNSLKPEDTAVDYCWYTQNTLGNYWGQGTQVTVSS	low polyreactivity
QVQLVESGGGLVQAGGSLRLSCAASGITFSYNAMGWYRQAPGKERELVAAITWSGDSTYYADSVKGRFTISRDNAKNTVYLQMNSLKPEDTAVYYCNARYLRLRYPYTDEYNYWGQGTQVTVSS	low polyreactivity
QVQLVESGGGLVQAGGSLRLSCAASGITFSYNVMGWYRQAPGKEREFVAAISDGGSTYYADSVKGRFTISRDNAKNTVYLQMNSLKPEDTAVYFCAKGYRYTYSQQVIYDYYYWGQGTQVTVSS	low polyreactivity
QVQLVESGGGLVQAGGSLRLSCAASGITFSYYAMGWYRQAPGKEMELVAAISGRDTRTYYADSVKGRFTISRDNAKNTVYLQMNSLKPEDTAVYYCNAVRKHLLKYDYWGQGTQVTVSS	high polyreactivity
QVQLVESGGGLVQAGGSLRLSCAASGITFSYYAMGWYRQAPGKERELVAAITGGSTYYADSVKGRFTISRDNAKNTVYLQMNSLKPEDTAVYYCNADSLFEYLDYDYWGQGTQVTVSS	low polyreactivity
QVQLVESGGGLVQAGGSLRLSCAASGITFTDNTMGWYRQAPGKERELVAAISRSGTSTYYADSVKGRFTISRDNAKNTVYLQMNSLKPEDTAVYYCAALSYVPSPYYYWGQGTQVTVSS	high polyreactivity
QVQLVESGGGLVQAGGSLRLSCAASGITFTEYAMGWYRQAPGKERELVAAITGSGTSTYYADSVKGRFTISRDNAKNTVYLQMNSLKPEDTAVYYCAAERKNKYDYWGQGTQVTVSS	high polyreactivity
QVQLVESGGGLVQAGGSLRLSCAASGITFTFNAMGWYRQAPGKERELVAAISSTTSTKYADSVKGRFTISRDNAKNTVYLQMNSLKPEDTAVYYCALTYLLRYYGYRDDEYDYWGQGTQVTVSS	low polyreactivity
QVQLVESGGGLVQAGGSLRLSCAASGITFTPNAMGWYRQAPGKEREFVAAITYSGGSTYYADSVKGRFTISRDNAKNTVYLQMNSLKPEDTAVYYCAADSFAWWGSRYDYWGQGTQVTVSS	low polyreactivity
QVQLVESGGGLVQAGGSLRLSCAASGITFTQYAMGWYRQAPGKELELVAAITSSGGSTYYADSVKERFTISRDNAKNTVYLQMNSLKPEDTAVYYFIAVRRRQSDYWGQGTQVTVSS	high polyreactivity
QVQLVESGGGLVQAGGSLRLSCAASGITFTQYAMGWYRQAPGKERELVASITSSGDNTYYADSVKGRFTISRDNAKNTVYLQMNSLKPEDTAVYYCNARYKWSRRKPWGYWGQGTQVTVSS	high polyreactivity
QVQLVESGGGLVQAGGSLRLSCAASGITFTRYGMGWYRQAPGKERELVAVISSSGGRTYYADSVKGRFTISRDNAKNTVYLQMNSLKPEDTAVYYCATVRVLAKYRPKMDYWGQGTQVTVSS	high polyreactivity
QVQLVESGGGLVQAGGSLRLSCAASGITFTSYAMGWYRQAPGKERELVAAISSSGVRTYYADSVKGRFTISRDYAKNTVYLQMKSLKPEDTAVYYCATRRRVLYGYDYWGQGTQVTVSS	high polyreactivity
QVQLVESGGGLVQAGGSLRLSCAASGITFTSYVMGWYRQAPGKERELVAAIRWSGGRTYYADSVKGRFTISRDNAKNTVYLQINSLKPEDTAVYYCAAYPSYYGDSGLRYDYWGQGTQVTVSS	high polyreactivity
QVQLVESGGGLVQAGGSLRLSCAASGITFTSYVMGWYRQAPGKERELVAAIRWSGGRTYYADSVKGRFTITRDNAKNTVYLQMNSLKPEDTAGYYCAAKRKPRPSYRYGYWGQGTQVTVSS	high polyreactivity

Sequence	polyreactivity (PSR sort gate)
QVQLVESGGGLVQAGGSLRLSCAASGITFTYYAMGWYRQAPGKERELVAAISYSGGSTYYADSVKGRFTISRDNAKITGYLQMNSLKREDTAVYYCATDARDGHDYWGQGTQVTVSS	high polyreactivity
QVQLVESGGGLVQAGGSLRLSCAASGITFVFYAMGWYRQAPGKEREFVAGITWRGGRTYYADSVKGRFTISRDNAKNTVYLQMNSLKPEDTAVYYCNARSVVLTGGDYWGQGTQVTVSS	high polyreactivity
QVQLVESGGGLVQAGGSLRLSCAASGITFVFYAMGWYRQAPGKERELVAAISWSGGITYYADSVKGRFTISRDNAKNTVYLQMNSLKPEDTAFYYCAATKRQTKYYGGTTDSIMYYWGQGTQVTVSS	low polyreactivity
QVQLVESGGGLVQAGGSLRLSCAASGITFVGNAMGGYRQATGKERELVAVIRGNGGSTYYADSVKGRFTISRDNAKNTVYLQMNSLKPEDTAVYYCAAAAYYADFDYLGQGTQVTVSS	low polyreactivity
QVQLVESGGGLVQAGGSLRLSCAASGITFVINGMGWYRQAPGKESELLAAISKSGRTYYADSVKGRFTISRDNAKNTVFIQMNSLTPEDSAVYYCNNVPYPSNDYWGQGTQVTVSS	high polyreactivity
QVQLVESGGGLVQAGGSLRLSCAASGITFVIYAMGWYRQAPGKEREFVAGINWSTGSTYYADTVKGRFTISRDYAKNTVYLQMNSLKPEDTAVYYFNVDAIINAIGAYWYDFDYWGQGTQVTVSS	low polyreactivity
QVQLVESGGGLVQAGGSLRLSCAASGITFVKNAMGWYRQAPGKERELVARIRIGGSTSYADSVKGRFTFSRDNAKNTVYLQMNSLKPEDTAVYYCARYAGRLSYRYEYWGQGTQVTVSS	high polyreactivity
QVQLVESGGGLVQAGGSLRLSCAASGITFVKNAMGWYRQAPGKERELVARIRIGGSTSYADSVKGRFTISRDNAKNTVYLQRNSLKPEDNAVYYCARYAGRLSYRYEYWGQGTQVTVSS	high polyreactivity
QVQLVESGGGLVQAGGSLRLSCAASGITFVKYAMGWYRQAPGKERELVAAISGSGGSTSYADSVKGRFTISRDNAKNTVYLQMNSLKPEDTAVYYCNKAIVRYPKTRDYWGQGTQVTVSS	low polyreactivity
QVQLVESGGGLVQAGGSLRLSCAASGITFVPNAMGWYRQAPGKERELVARIDNGVSTNYADSVKGRFTISRDNAKNTVYLQMNSLKPEDTAVYYCAKDGYWGDWDLYYWGQGTQVTVSS	low polyreactivity
QVQLVESGGGLVQAGGSLRLSCAASGITFVPYAMGWSRQAPGKERELVAAITWRGGSTYYADSVKGRFTISRDNAKNTVYLQMNSLKPEDTAVYYCAVKFRSSQYQLQYGSLGQGTQVTVSS	high polyreactivity
QVQLVESGGGLVQAGGSLRLSCAASGITFVPYAMGWYRQAPGKEREFVARITWSGGGTYYADSVKGRFTISRDNAKNTVYLQMNSLKPEDTAVYYSNKASLPTYYYVDGSDSWGQGTQVTVSS	low polyreactivity
QVQLVESGGGLVQAGGSLRLSCAASGITFVRYAMGGYRQAPGKESELVAGISRGGSTNYADSVKGRFTISRDNAKNTVYLQMNSLKPEDSAVYYCNALYARRVYVGYDYWGQGTQVTVSS	high polyreactivity
QVQLVESGGGLVQAGGSLRLSCAASGITFVRYAMGWYRQAPGKERELVAAISSGGSTHYADSVKGRFTISRDNAKNTVYLQMYSLKPEDTAVYYCAAQWTESSLYRFGYLGQGTQVTVSS	high polyreactivity
QVQLVESGGGLVQAGGSLRLSCAASGITFVRYAMGWYRQAPGKERELVATINWSGGSTYYADSVKGRFTISRDNAKNTVYLQMNSLKPEDTAVYYCAAYYVHPVYDVGHYDYWGQGTQVTVSS	low polyreactivity
QVQLVESGGGLVQAGGSLRLSCAASGITFVRYAMGWYRQATGKERELVAGISRGGSTNYADSVKGRFTISRDNAKNTVYLQMNSLKPEDTAVYYCNRVFTWRYGYRYEYWGQGTQVTVSS	high polyreactivity
QVQLVESGGGLVQAGGSLRLSCAASGITFVWNAMGWYIKEPGKERELVATISRGGVRTYYADSVKGRFTISRDNAKNTVYLQMNSLKPEDTAVYYCNAYFEYYDYWGQGTQVSVSS	low polyreactivity
QVQLVESGGGLVQAGGSLRLSCAASGITFVYNDMGSYRQAPGKESELVAAISWRGGSTYYADSVKGRFTISRDNAKNTVYLQMNSLKPEDTAVYYCNKLPTYPEYGYDSWGQGTQVTVSS	high polyreactivity
QVQLVESGGGLVQAGGSLRLSCAASGITFVYYDMGWYRQAPGKERELLAAISSGGSTYYADSVKGRFTISRDNAKNTVYLQMNSLKPEDTAVYYCAAKISSNYHIGGDDYWGQGTQVSVSS	high polyreactivity
QVQLVESGGGLVQAGGSLRLSCAASGITFVYYDMGWYRQAPGKERELVAAISSGGSTYYADSVKGRFTISRDNAKNNVYLQMNRLKPEDTAVYYCAAKISSNYHIGGDDYWGQGTQVTVSS	high polyreactivity
QVQLVESGGGLVQAGGSLRLSCAASGITFVYYTMGWYRQAPGKERELVASITWDGRSTYYADSVKGRFTISRDNAKNTVYLQMNSLKPEDTAVYYCNRDRVSGGKYNYWGQGTQVTVSS	low polyreactivity
